US20140298494A1, “ANIMAL MODEL OF AUTISM” (Beth Israel Deaconess Medical Center, Inc., priority 2011, published 2014)
“Also recorded” adds a separate entry of the source.

Key:
non-NMDA receptor = assay: inhibition of minimal-stimulation single fiber EPSC amplitude by γ-DGG in layer 2/3 barrel cortex pyramidal neurons (brain slices); assay type: cell-based, mouse; conditions: γ-DGG 300 μM; Ube3a (2×) transgenic vs wild-type neurons; P=0.0127, n=7-8
Procedure: The vesicle glutamate content was estimated by the relative inhibition of mean single fiber EPSC amplitude by the fast off-rate, non-NMDA receptor blocker γ-DGG (300 μM). The higher the percentage inhibition by γ-DGG, the lower the concentration of synaptic glutamate. Detailed protocols are available in the Extended Experimental Procedures.
The vesicle glutamate content was estimated by the relative inhibition of mean single fiber EPSC amplitude by the fast off-rate, non-NMDA receptor blocker γ-DGG (300 μM). The higher the percentage inhibition by γ-DGG, the lower the concentration of synaptic glutamate (see ref. 21). To selectively stimulate a single fiber in layer 2/3 of the barrel cortex, minimal stimuli were delivered through ACSF-filled bipolar glass electrodes pulled from 2.0 mm OD dual barrel theta capillary glass (Warner Instruments). The tip of the stimulating electrodes is about 2 μm. To establish a minimal stimulation, we first sought for the highest stimulus that gave all failures. […] To acquire a reasonable number of EPSCs from 40-100 trials in both baseline and γ-DGG conditions at 0.3 Hz, we adjusted the stimulation intensity to give about 10% failures (WT: 9.7±2.4%, n=8; 1×: 9.7±3.4%, n=8; 2×: 11.6±4.6%, […]; F(2, 21)=0.106, P=0.90). Under this failure rate, the calculated quantal content was about 2. […]

recombinant Arc [1] = test system: recombinant Arc
recombinant Arc [2] = assay: in vitro target protein degradation (ubiquitination) assay with immunoprecipitated Ube3a-FLAG; assay type: biochemical; conditions: FLAG antibody immunoprecipitate from Tg cortical lysate; control Wt 1.26±0.04; P=0.01; n=3 independent in vitro assays
Procedure: Ube3a expression was confirmed by western blot of cortical lysates using both anti-FLAG M2 antibody (Sigma) and anti-Ube3a (BD Biosciences). The ubiquitin ligase activity of Ube3a was assayed by an in vitro target protein degradation assay. Ube3a was immunoprecipitated using anti-FLAG M2 antibodies and protein G magnetic beads (NEB) and eluted in non-denaturing conditions using a 3× FLAG peptide (Sigma). 1 μg of recombinant ARC (BD Biosciences) was added to 10 μl of immunoprecipitated Ube3a in the presence of 50 ng E1 and 100 ng UbcH7 enzymes and 4 μg HA-ubiquitin (Boston Bioproducts) as in (19). Western blots were probed with anti-ARC (Santa Cruz) and quantified using ImageJ (NIH). Detailed protocols are available in the Extended Experimental Procedures.
Cortical lysates were prepared in PBS with 1% TritonX-100 and protease inhibitors, incubated with 4 μg of anti-FLAG antibodies overnight, and with 50 μl of protein G magnetic beads (NEB) for immunoprecipitation (IP). Beads were washed 5× with PBS and Ube3a-FLAG was eluted with 3× FLAG peptide (Sigma) in 100 μl PBS, and IP success was confirmed by western blot. […]

Question: Which “Reduction of EPSC amplitude by γ-DGG” value (non-NMDA receptor) does the source give for N[C@H](CCC(=O)NCC(=O)O)C(=O)O [γDGG, γ-D-glutamylglycine] here?
Answer: reduce EPSC amplitude to a greater extent in Ube3a (2×) transgenic than in wild-type neurons; also recorded: increased γDGG inhibition in Ube3a transgenic mice

Question: Which “in vitro target protein degradation assay (Arc on western blot probed with anti-ARC, quantified with ImageJ)” value (recombinant Arc [1]) does the source give for “FLAG-tagged full length Ube3a (transgenic mouse Ube3a with C-terminal 3×FLAG tag, immunoprecipitated from cortical lysates of transgenic mice)” here?
Answer: mean±SEM Wt: 1.26±0.04 vs. Tg: 0.58±0.16; P=0.01 by t test; n=3 independent in vitro assays

B1: transgenic Ube3a: full-length FLAG-tagged transgenic Ube3a ubiquitin ligase immunoprecipitated from transgenic mouse cortical lysate (protein, UniProt O08759 1-870, looked up)
chain: MATACKRSPGESQSEDIEASRMKRAAAKHLIERYYHQLTEGCGNEACTNEFCASCPTFLRMDNNAAAIKALELYKINAKLCDPHPSKKGASSAYLENSKGASNNSEIKMNKKEGKDFKDVIYLTEEKVYEIYEFCRESEDYSPLIRVIGRIFSSAEALVLSFRKVKQHTKEELKSLQEKDEDKDEDEKEKAACSAAAMEEDSEASSSRMGDSSQGDNNVQKLGPDDVTVDIDAIRRVYSSLLANEKLETAFLNALVYLSPNVECDLTYHNVYTRDPNYLNLFIIVMENSNLHSPEYLEMALPLFCKAMCKLPLEAQGKLIRLWSKYSADQIRRMMETFQQLITYKVISNEFNSRNLVNDDDAIVAASKCLKMVYYANVVGGDVDTNHNEEDDEEPIPESSELTLQELLGDERRNKKGPRVDPLETELGVKTLDCRKPLISFEEFINEPLNDVLEMDKDYTFFKVETENKFSFMTCPFILNAVTKNLGLYYDNRIRMYSERRITVLYSLVQGQQLNPYLRLKVRRDHIIDDALVRLEMIAMENPADLKKQLYVEFEGEQGVDEGGVSKEFFQLVVEEIFNPDIGMFTYDEATKLFWFNPSSFETEGQFTLIGIVLGLAIYNNCILDVHFPMVVYRKLMGKKGTFRDLGDSHPVLYQSLKDLLEYEGSVEDDMMITFQISQTDLFGNPMMYDLKENGDKIPITNENRKEFVNLYSDYILNKSVEKQFKAFRRGFHMVTNESPLKYLFRPEEIELLICGSRNLDFQALEETTEYDGGYTRESVVIREFWEIVHSFTDEQKRLFLQFTTGTDRAPVGGLGKLKMIIAKNGPDTERLPTSHTCFNVLLLPEYSSKEKLKERLLKAITYAKGFGML
modifications: full-length FLAG tag
notes: full-length FLAG-tagged transgenic Ube3a ubiquitin ligase immunoprecipitated from transgenic mouse cortical lysate
Question: With B1 as the molecule, how does the “Recombinant Arc level after in vitro degradation (western blot, mean±SEM)” value (recombinant Arc [2]) read?
Answer: 0.58±0.16
